Measured values as given in the supplement of paper PMC9112550, “Optimization of the antimicrobial peptide Bac7 by deep mutational scanning” (BMC Biology, 2022).

System: Escherichia coli TOP10
Test: shrunken log2 fold change of peptide-encoding DNA abundance (4.5 h post-induction vs induction); higher = less antimicrobial activity (less host growth inhibition)
Conditions: time post-induction: 4.5 h; library: site-saturation at positions 5, 18, 19, 20
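Note: peptides expressed intracellularly from a pBAD plasmid library in pooled LB shake-flask culture, induced with 0.3% L-arabinose, DNA abundance read by NGS, three biological replicates, DESeq2 with apeglm shrinkage.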

## RRIRQRPPRLPRPRPRPQPSPRP
  shrunken log2 fold change: 0.44

## RRIRPRPPRLPRPRPRPSQSPRP
  shrunken log2 fold change: -0.0693

## RRIRIRPPRLPRPRPRPIMHPRP
  shrunken log2 fold change: -0.252

## RRIRTRPPRLPRPRPRPLNAPRP
  shrunken log2 fold change: -0.264

## RRIRTRPPRLPRPRPRPNIKPRP
  shrunken log2 fold change: -0.828

## RRIRWRPPRLPRPRPRPPLMPRP
  shrunken log2 fold change: 0.213

## RRIRRRPPRLPRPRPRPMWRPRP
  shrunken log2 fold change: 0.312

## RRIRERPPRLPRPRPRPLLSPRP
  shrunken log2 fold change: -0.206

## RRIRIRPPRLPRPRPRPKCNPRP
  shrunken log2 fold change: -0.701

## RRIRGRPPRLPRPRPRPHMCPRP
  shrunken log2 fold change: -0.01

## RRIRDRPPRLPRPRPRPMTQPRP
  shrunken log2 fold change: 0.0403

## RRIRTRPPRLPRPRPRPGDVPRP
  shrunken log2 fold change: 0.0978

## RRIRYRPPRLPRPRPRPKKKPRP
  shrunken log2 fold change: -0.104

## RRIRRRPPRLPRPRPRPHKIPRP
  shrunken log2 fold change: -0.182

## RRIRFRPPRLPRPRPRPFMEPRP
  shrunken log2 fold change: -0.728

## RRIRYRPPRLPRPRPRPKMHPRP
  shrunken log2 fold change: -0.561

## RRIRLRPPRLPRPRPRPNPAPRP
  shrunken log2 fold change: -0.0363

## RRIRLRPPRLPRPRPRPKRWPRP
  shrunken log2 fold change: 0.356

## RRIRLRPPRLPRPRPRPSFLPRP
  shrunken log2 fold change: -0.562

## RRIRHRPPRLPRPRPRPIATPRP
  shrunken log2 fold change: -0.0153

## RRIRDRPPRLPRPRPRPSFLPRP
  shrunken log2 fold change: -0.197

## RRIRKRPPRLPRPRPRPRRSPRP
  shrunken log2 fold change: 0.0846

## RRIRSRPPRLPRPRPRPMPRPRP
  shrunken log2 fold change: 0.346

## RRIRIRPPRLPRPRPRPIRFPRP
  shrunken log2 fold change: -1.35

## RRIRIRPPRLPRPRPRPAKPPRP
  shrunken log2 fold change: 0.297

## RRIRCRPPRLPRPRPRPNAVPRP
  shrunken log2 fold change: 0.0238

## RRIRTRPPRLPRPRPRPAMAPRP
  shrunken log2 fold change: 0.392

## RRIRTRPPRLPRPRPRPDVGPRP
  shrunken log2 fold change: -0.0549

## RRIRSRPPRLPRPRPRPTKKPRP
  shrunken log2 fold change: 0.0472

## RRIRVRPPRLPRPRPRPWNLPRP
  shrunken log2 fold change: -0.14

## RRIRYRPPRLPRPRPRPRYEPRP
  shrunken log2 fold change: -0.415

## RRIRNRPPRLPRPRPRPDSTPRP
  shrunken log2 fold change: -0.028

## RRIRTRPPRLPRPRPRPQLSPRP
  shrunken log2 fold change: 0.212

## RRIRPRPPRLPRPRPRPVWIPRP
  shrunken log2 fold change: 0.0152

## RRIRKRPPRLPRPRPRPNSPPRP
  shrunken log2 fold change: -0.027

## RRIRRRPPRLPRPRPRPGPWPRP
  shrunken log2 fold change: 0.523

## RRIRDRPPRLPRPRPRPGTFPRP
  shrunken log2 fold change: 0.00435

## RRIRCRPPRLPRPRPRPSHEPRP
  shrunken log2 fold change: -0.334

## RRIRRRPPRLPRPRPRPFRNPRP
  shrunken log2 fold change: -0.0392

## RRIRTRPPRLPRPRPRPKHMPRP
  shrunken log2 fold change: -0.081

## RRIRSRPPRLPRPRPRPRQEPRP
  shrunken log2 fold change: -0.0798

## RRIRQRPPRLPRPRPRPKIVPRP
  shrunken log2 fold change: -0.113

## RRIRFRPPRLPRPRPRPLQIPRP
  shrunken log2 fold change: -0.384

## RRIRYRPPRLPRPRPRPVMSPRP
  shrunken log2 fold change: -0.233

## RRIRCRPPRLPRPRPRPHDDPRP
  shrunken log2 fold change: -0.104

## RRIRTRPPRLPRPRPRPTWIPRP
  shrunken log2 fold change: -0.0425

## RRIRVRPPRLPRPRPRPFRWPRP
  shrunken log2 fold change: -0.0443

## RRIRHRPPRLPRPRPRPHKSPRP
  shrunken log2 fold change: -0.337

## RRIRMRPPRLPRPRPRPEEEPRP
  shrunken log2 fold change: 0.0412

## RRIRLRPPRLPRPRPRPGPIPRP
  shrunken log2 fold change: 0.195

## RRIRPRPPRLPRPRPRPWSIPRP
  shrunken log2 fold change: -0.0637

## RRIRQRPPRLPRPRPRPDDSPRP
  shrunken log2 fold change: -0.139

## RRIRFRPPRLPRPRPRPVHCPRP
  shrunken log2 fold change: -0.0193

## RRIRIRPPRLPRPRPRPEFTPRP
  shrunken log2 fold change: -0.1

## RRIRCRPPRLPRPRPRPFHIPRP
  shrunken log2 fold change: -1.96

## RRIRYRPPRLPRPRPRPMANPRP
  shrunken log2 fold change: -0.223

## RRIRCRPPRLPRPRPRPCGGPRP
  shrunken log2 fold change: 0.113

## RRIRFRPPRLPRPRPRPYETPRP
  shrunken log2 fold change: -0.185

## RRIRARPPRLPRPRPRPVFEPRP
  shrunken log2 fold change: 0.41

## RRIRWRPPRLPRPRPRPSFEPRP
  shrunken log2 fold change: -0.0836

## RRIRHRPPRLPRPRPRPEKEPRP
  shrunken log2 fold change: -0.00451

## RRIRWRPPRLPRPRPRPALAPRP
  shrunken log2 fold change: 0.555

## RRIRSRPPRLPRPRPRPYASPRP
  shrunken log2 fold change: 0.0607

## RRIRFRPPRLPRPRPRPEDRPRP
  shrunken log2 fold change: 0.045

## RRIRTRPPRLPRPRPRPMMIPRP
  shrunken log2 fold change: 0.000458

## RRIRERPPRLPRPRPRPGHVPRP
  shrunken log2 fold change: -0.00285

## RRIRARPPRLPRPRPRPLYKPRP
  shrunken log2 fold change: -0.362

## RRIRARPPRLPRPRPRPPPRPRP
  shrunken log2 fold change: 1.56

## RRIRDRPPRLPRPRPRPIYDPRP
  shrunken log2 fold change: -0.0423

## RRIRMRPPRLPRPRPRPECYPRP
  shrunken log2 fold change: -0.192

## RRIRIRPPRLPRPRPRPVTYPRP
  shrunken log2 fold change: -0.275

## RRIRGRPPRLPRPRPRPHGIPRP
  shrunken log2 fold change: 0.00234

## RRIRNRPPRLPRPRPRPDYSPRP
  shrunken log2 fold change: -0.0548

## RRIRFRPPRLPRPRPRPDRLPRP
  shrunken log2 fold change: 0.147

## RRIRIRPPRLPRPRPRPGWYPRP
  shrunken log2 fold change: -0.221

## RRIRYRPPRLPRPRPRPCLQPRP
  shrunken log2 fold change: -0.00663

## RRIRRRPPRLPRPRPRPCHSPRP
  shrunken log2 fold change: 0.00408

## RRIRSRPPRLPRPRPRPDEVPRP
  shrunken log2 fold change: 0.0037

## RRIRGRPPRLPRPRPRPQPVPRP
  shrunken log2 fold change: 0.285

## RRIRFRPPRLPRPRPRPNGDPRP
  shrunken log2 fold change: -0.131

## RRIRWRPPRLPRPRPRPSFRPRP
  shrunken log2 fold change: -0.261

## RRIRWRPPRLPRPRPRPLEDPRP
  shrunken log2 fold change: 0.047

## RRIRSRPPRLPRPRPRPCSHPRP
  shrunken log2 fold change: -0.174

## RRIRCRPPRLPRPRPRPAPVPRP
  shrunken log2 fold change: 0.56

## RRIRARPPRLPRPRPRPLDWPRP
  shrunken log2 fold change: 1

## RRIRMRPPRLPRPRPRPTAYPRP
  shrunken log2 fold change: 0.513

## RRIRPRPPRLPRPRPRPTEWPRP
  shrunken log2 fold change: 0.0519

## RRIRERPPRLPRPRPRPVESPRP
  shrunken log2 fold change: -0.0262

## RRIRTRPPRLPRPRPRPWAYPRP
  shrunken log2 fold change: 0.013

## RRIRLRPPRLPRPRPRPRYLPRP
  shrunken log2 fold change: -0.0102

## RRIRIRPPRLPRPRPRPKYVPRP
  shrunken log2 fold change: -0.134

## RRIRRRPPRLPRPRPRPLPKPRP
  shrunken log2 fold change: 0.634

## RRIRRRPPRLPRPRPRPRRMPRP
  shrunken log2 fold change: 0.206

## RRIRRRPPRLPRPRPRPAMIPRP
  shrunken log2 fold change: 0.0243

## RRIRDRPPRLPRPRPRPELPPRP
  shrunken log2 fold change: 0.302

## RRIRHRPPRLPRPRPRPSMEPRP
  shrunken log2 fold change: -0.424

## RRIRCRPPRLPRPRPRPEYPPRP
  shrunken log2 fold change: 0.0734

## RRIRQRPPRLPRPRPRPTKMPRP
  shrunken log2 fold change: -0.239

## RRIRDRPPRLPRPRPRPPQQPRP
  shrunken log2 fold change: -0.089

## RRIRRRPPRLPRPRPRPGTNPRP
  shrunken log2 fold change: 0.0926

## RRIRFRPPRLPRPRPRPIITPRP
  shrunken log2 fold change: -0.5

## RRIRMRPPRLPRPRPRPHILPRP
  shrunken log2 fold change: 0.113

## RRIRSRPPRLPRPRPRPQENPRP
  shrunken log2 fold change: -0.0522

## RRIRDRPPRLPRPRPRPWCLPRP
  shrunken log2 fold change: -0.129

## RRIRERPPRLPRPRPRPYVFPRP
  shrunken log2 fold change: -0.575

## RRIRWRPPRLPRPRPRPNHFPRP
  shrunken log2 fold change: -0.429

## RRIRHRPPRLPRPRPRPHTVPRP
  shrunken log2 fold change: -0.606

## RRIRPRPPRLPRPRPRPVHKPRP
  shrunken log2 fold change: -0.0637

## RRIRPRPPRLPRPRPRPVPMPRP
  shrunken log2 fold change: 0.0911

## RRIRPRPPRLPRPRPRPGNCPRP
  shrunken log2 fold change: -0.0898

## RRIRNRPPRLPRPRPRPNDTPRP
  shrunken log2 fold change: -0.236

## RRIRTRPPRLPRPRPRPHTNPRP
  shrunken log2 fold change: 0.0124

## RRIRVRPPRLPRPRPRPMNAPRP
  shrunken log2 fold change: 0.154

## RRIRRRPPRLPRPRPRPNEWPRP
  shrunken log2 fold change: 0.0626

## RRIRTRPPRLPRPRPRPCVRPRP
  shrunken log2 fold change: 0.116

## RRIRVRPPRLPRPRPRPDEFPRP
  shrunken log2 fold change: -0.0422

## RRIRQRPPRLPRPRPRPGVVPRP
  shrunken log2 fold change: 0.000417

## RRIRERPPRLPRPRPRPQTMPRP
  shrunken log2 fold change: -0.157

## RRIRNRPPRLPRPRPRPHQMPRP
  shrunken log2 fold change: -0.114

## RRIRRRPPRLPRPRPRPEKHPRP
  shrunken log2 fold change: 0.121

## RRIRERPPRLPRPRPRPWVIPRP
  shrunken log2 fold change: 0.0392

## RRIRHRPPRLPRPRPRPVNIPRP
  shrunken log2 fold change: -0.459

## RRIRIRPPRLPRPRPRPACWPRP
  shrunken log2 fold change: 0.222

## RRIRYRPPRLPRPRPRPALMPRP
  shrunken log2 fold change: -0.226

## RRIRHRPPRLPRPRPRPRQNPRP
  shrunken log2 fold change: 0.0341

## RRIRGRPPRLPRPRPRPLVYPRP
  shrunken log2 fold change: 0.0199

## RRIRRRPPRLPRPRPRPGRHPRP
  shrunken log2 fold change: 0.212

## RRIRTRPPRLPRPRPRPPANPRP
  shrunken log2 fold change: 0.0303

## RRIRGRPPRLPRPRPRPIPIPRP
  shrunken log2 fold change: 0.0541

## RRIRWRPPRLPRPRPRPMDAPRP
  shrunken log2 fold change: 0.051

## RRIRLRPPRLPRPRPRPNWCPRP
  shrunken log2 fold change: 0.374

## RRIRPRPPRLPRPRPRPMKQPRP
  shrunken log2 fold change: 0.036

## RRIRGRPPRLPRPRPRPNVIPRP
  shrunken log2 fold change: 0.211

## RRIRVRPPRLPRPRPRPMIIPRP
  shrunken log2 fold change: -1.25

## RRIRIRPPRLPRPRPRPTLHPRP
  shrunken log2 fold change: -0.377

## RRIRSRPPRLPRPRPRPDYCPRP
  shrunken log2 fold change: -0.284

## RRIRYRPPRLPRPRPRPSLMPRP
  shrunken log2 fold change: -0.556

## RRIRIRPPRLPRPRPRPHWPPRP
  shrunken log2 fold change: 0.00237

## RRIRKRPPRLPRPRPRPWFIPRP
  shrunken log2 fold change: -0.131

## RRIRERPPRLPRPRPRPCFCPRP
  shrunken log2 fold change: -0.318

## RRIRSRPPRLPRPRPRPWMYPRP
  shrunken log2 fold change: -0.0974

## RRIRIRPPRLPRPRPRPTEDPRP
  shrunken log2 fold change: 0.267

## RRIRFRPPRLPRPRPRPTKMPRP
  shrunken log2 fold change: 0.0196

## RRIRFRPPRLPRPRPRPLYHPRP
  shrunken log2 fold change: -0.859

## RRIRLRPPRLPRPRPRPGQVPRP
  shrunken log2 fold change: 0.318

## RRIRWRPPRLPRPRPRPGLHPRP
  shrunken log2 fold change: 0.237

## RRIRHRPPRLPRPRPRPSCIPRP
  shrunken log2 fold change: -0.265

## RRIRVRPPRLPRPRPRPSAVPRP
  shrunken log2 fold change: -0.0662

## RRIRRRPPRLPRPRPRPLRYPRP
  shrunken log2 fold change: 0.463

## RRIRERPPRLPRPRPRPELKPRP
  shrunken log2 fold change: 0.138
